# Test results: the supplement of paper PMC9732359
# ± gives the uncertainty stated by the source.
# Experiment: protein stability index of a GFP-peptide fusion (yeast GPS) (PSI 1-4); higher = more stable; sorted into four equal gates, so the index is relative within each strain
# Outline: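 Sequencing reads from sorted gates were used to score each peptide. The library consisted of tiled 17-residue yeast protein peptides fused downstream of GFP on a Cherry-expressing plasmid, pooled and carried in yeast. Mid-log cultures in leucine-free medium were split into four equal gates by GFP/Cherry ratio, and each gate's plasmids were PCR-amplified and Illumina-sequenced. The protein stability index adds up, over all gates, the read frequency multiplied by the gate number.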
Sequence,protein stability index (doa10∆),protein stability index (pdr5∆),protein stability index (san1∆),protein stability index (ubr1∆)
TAKKTNRSAYDSKNTPN [YDL088C/ASM4],2.68 ± 0.089,2.78 ± 0.065,2.94 ± 0.052,2.9 ± 0.084
DEDKNFPRSRSRSRSSI [ESC2],3.13 ± 0.15,3.25 ± 0.14,3.12 ± 0.14,3.27 ± 0.07
EEYKQLVKDRKFLREVF [RPO21],3.32 ± 0.078,3.49 ± 0.076,2.81 ± 0.084,2.98 ± 0.11
KITIGIQRTTESLILKW [RGR1],2.33 ± 0.086,1.6 ± 0.067,1.49 ± 0.078,1.66 ± 0.04
LRLRGGIIEPSLKALAS [RPL40A],3.1 ± 0.046,3.02 ± 0.048,2.7 ± 0.048,3.02 ± 0.045
IKKYASVVRVLVHTQIR [RPL3],1.87 ± 0.064,2.32 ± 0.074,1.62 ± 0.11,2.13 ± 0.044
LLSDPTITIKSYHLWPS [PRP8],2.33 ± 0.063,2.62 ± 0.073,2.53 ± 0.094,2.51 ± 0.077
DCIIRLPVKWETTTQFK [FAS1],1.74 ± 0.083,2.03 ± 0.074,1.94 ± 0.091,2.43 ± 0.11
KGLETIDNGAESSENEA [RPC53],3.24 ± 0.13,3.44 ± 0.13,3.14 ± 0.1,3.12 ± 0.094
LNDRFQTLSSHLEALQP [PGD1],2.64 ± 0.04,2.69 ± 0.042,2.63 ± 0.04,2.54 ± 0.032
CWLSSVDVNTQKSFEQL [RPN11],2.69 ± 0.095,1.28 ± 0.19,1.4 ± 0.29,1.35 ± 0.065
LWLKKVMEEEEQDCKCI [POP8],2.63 ± 0.077,2.7 ± 0.068,3.05 ± 0.078,2.99 ± 0.051
NTFVTRLNNVFVIGEQG [RPS4A],3.29 ± 0.096,2.89 ± 0.09,3.22 ± 0.13,3.16 ± 0.094
YCDSMGRPQRKMMSFQA [RPB5],3.5 ± 0.12,3.19 ± 0.13,3.48 ± 0.058,3.3 ± 0.09
KQERSKQERLKENEESL [PRP28],3.21 ± 0.2,3.62 ± 0.17,3.22 ± 0.13,3.31 ± 0.11
DPFSDVDDDQDYVVAPG [GRR1],2.56 ± 0.12,2.17 ± 0.2,1.74 ± 0.19,3.55 ± 0.24
LAVKVHGGSRYATKDGV [QCR2],1.62 ± 0.11,1.18 ± 0.1,1.17 ± 0.26,1.07 ± 0.089
TSPFGGARPGRVARRNA [RPS9A],2.8 ± 0.15,2.84 ± 0.28,3.02 ± 0.15,3.28 ± 0.1
TTDANGSKENYQELGSL [MED2],2.86 ± 0.097,3.09 ± 0.081,3.15 ± 0.049,2.9 ± 0.075
TLIVNTDVEKSDPAAKK [SRP21],,3.13 ± 0.3,,3.7 ± 0.16
YVSALKRINKFLDSVHK [POP7],1.91 ± 0.049,1.56 ± 0.037,2 ± 0.068,1.8 ± 0.034
ENYDAKIELEKKEKWAR [YIL149C/MLP2],3.2 ± 0.08,3.2 ± 0.12,2.67 ± 0.12,3.12 ± 0.067
NKIINWEISNPDFLSKY [NUT1],2.06 ± 0.047,2.41 ± 0.045,2.11 ± 0.11,1.8 ± 0.05
TVQNEILGDLGKEFGTT [FAS2],3.03 ± 0.2,2.34 ± 0.25,2.57 ± 0.093,2.9 ± 0.16
FSSPAALMKTLIKFVDL [NUT1],1.98 ± 0.083,1.68 ± 0.057,1.95 ± 0.12,1.78 ± 0.12
TNDRLNREAATKEVESN [DIS3],2.79 ± 0.14,2.58 ± 0.096,2.62 ± 0.12,3.1 ± 0.1
HKVSSQSTNLNRSAKNS [YCS4],2.24 ± 0.054,2.41 ± 0.05,2.38 ± 0.079,2.32 ± 0.05

Sequence,protein stability index (doa10∆),protein stability index (pdr5∆),protein stability index (san1∆),protein stability index (ubr1∆)
EREIKRRKFDPSSSENV [UBP6],3.51 ± 0.078,3.37 ± 0.071,3.14 ± 0.065,3.33 ± 0.13
SASLHTRSLKYGKLRNG [RRP4],1.58 ± 0.075,2.15 ± 0.11,1.08 ± 0.13,2.82 ± 0.16
KTYKEGINKNEEYRKQL [SMC1],3.23 ± 0.16,2.2 ± 0.084,2.31 ± 0.077,2.19 ± 0.056
SHLWEIDIPLDEQAFYN [RPC37],,2.45 ± 0.27,2.98 ± 0.24,
TQTGQNTGPSTGGLFGA [YGL172W/NUP49],3.47 ± 0.11,3.34 ± 0.094,2.93 ± 0.14,3.52 ± 0.13
ADVTHFVKPGTALDAEG [DIS3],2.9 ± 0.094,3.33 ± 0.2,3.04 ± 0.076,3.08 ± 0.081
DFELAVGKVMNKNQETA [RPT6],2.37 ± 0.21,,,
LNSMEKDRISHEVVQDD [PCI8],2.61 ± 0.079,2.69 ± 0.061,3.01 ± 0.067,2.41 ± 0.12
QNAAANAEAKGLDATKL [RPL17A],2.8 ± 0.28,3.39 ± 0.24,1.93 ± 0.25,
SVLDEQEQYQTNTFEGS [SNU114],3.12 ± 0.14,3.22 ± 0.08,3.26 ± 0.11,3.31 ± 0.071
DVPGRELKYELIAEESE [RPB2],3.07 ± 0.19,3.01 ± 0.12,,
ALSYAALILADSEIEIS [RPP1A],1.8 ± 0.058,1.93 ± 0.062,1.78 ± 0.06,1.9 ± 0.04
LKTFHFAGVASMNVTLG [RPO31],2.17 ± 0.081,2.25 ± 0.048,2.34 ± 0.093,1.98 ± 0.055
YDLNFKLRETLVKIDDL [SMC1],3.05 ± 0.15,3.13 ± 0.13,3.01 ± 0.13,2.68 ± 0.14
DYNLRIYCYFLIMKLGR [SSN8],1.23 ± 0.084,1.12 ± 0.098,1.36 ± 0.29,1.39 ± 0.11
PLRGALATYGLTIDDLG [FAS2],2.38 ± 0.087,2.51 ± 0.1,2.19 ± 0.1,2.72 ± 0.079
DERTKEFEKKLQETLNK [YIL149C/MLP2],,,2.88 ± 0.12,
TRAAKIAPRPLDLLRPV [RPL13A],2.95 ± 0.091,3.27 ± 0.11,3.15 ± 0.081,2.89 ± 0.054
NKKSEENEMIKPMNKGQ [SWP82],3.09 ± 0.18,3.41 ± 0.095,3.39 ± 0.067,3.39 ± 0.26
DDYKDLTCSLYELYINK [IRR1],2.74 ± 0.084,2.75 ± 0.12,3.16 ± 0.056,2.94 ± 0.079
FRENMSKEETVDFIKHS [PRE3],3.11 ± 0.086,3.19 ± 0.086,3.16 ± 0.066,3.24 ± 0.085
AAPSAADIKAVVESVGA [RPP2B],3.08 ± 0.1,3.06 ± 0.073,3.05 ± 0.094,3.29 ± 0.084
DSALRYSILGDRFKYRS [POP4],3.27 ± 0.18,3.04 ± 0.23,3.23 ± 0.098,
PSYAERQSSDESDNYRL [YML031W/NDC1],2.62 ± 0.049,2.32 ± 0.043,2.75 ± 0.057,2.7 ± 0.036
SDVLFEFTKINTPLVGA [YJL039C/NUP192],1.66 ± 0.042,1.66 ± 0.045,1.45 ± 0.088,1.47 ± 0.037
NANAGLFNKPPSTNAQN [YOR098C/NUP1],3.1 ± 0.046,3.17 ± 0.046,3.06 ± 0.038,3.16 ± 0.034
